Values of other authors in article PMC8714859.
pKd: −log10 of the molar value.

How the values were obtained:
M-CSF (Homo sapiens) = M-CSF (Homo sapiens) (UniProt P09603)
[1] = target: interleukin-34 (Homo sapiens) (UniProt Q6ZMJ4)
Chain of UniProt Q6ZMJ4 (Q6ZMJ4 21-242): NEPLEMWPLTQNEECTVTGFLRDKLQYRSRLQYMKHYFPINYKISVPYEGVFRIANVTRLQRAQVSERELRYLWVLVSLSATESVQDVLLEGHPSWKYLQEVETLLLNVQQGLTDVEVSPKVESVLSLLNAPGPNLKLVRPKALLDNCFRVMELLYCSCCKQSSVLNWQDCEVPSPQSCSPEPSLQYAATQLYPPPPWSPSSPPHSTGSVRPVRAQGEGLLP

Chain of UniProt P09603 (P09603 33-190): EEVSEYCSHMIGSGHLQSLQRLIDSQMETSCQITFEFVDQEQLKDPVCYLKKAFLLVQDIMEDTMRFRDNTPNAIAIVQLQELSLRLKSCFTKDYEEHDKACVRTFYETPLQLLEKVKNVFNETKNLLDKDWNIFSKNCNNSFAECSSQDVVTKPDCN

pKd (M-CSF (Homo sapiens)): 10.47 | pKd [1]: 12.00
Substance: M-CSF receptor (from UniProt P07333)
